Earlier results on one substance are cited in publication PMC3950513.

The target in this series is MukB (Escherichia coli) (UniProt P22523).
Chain of UniProt P22523 (P22523 whole entry): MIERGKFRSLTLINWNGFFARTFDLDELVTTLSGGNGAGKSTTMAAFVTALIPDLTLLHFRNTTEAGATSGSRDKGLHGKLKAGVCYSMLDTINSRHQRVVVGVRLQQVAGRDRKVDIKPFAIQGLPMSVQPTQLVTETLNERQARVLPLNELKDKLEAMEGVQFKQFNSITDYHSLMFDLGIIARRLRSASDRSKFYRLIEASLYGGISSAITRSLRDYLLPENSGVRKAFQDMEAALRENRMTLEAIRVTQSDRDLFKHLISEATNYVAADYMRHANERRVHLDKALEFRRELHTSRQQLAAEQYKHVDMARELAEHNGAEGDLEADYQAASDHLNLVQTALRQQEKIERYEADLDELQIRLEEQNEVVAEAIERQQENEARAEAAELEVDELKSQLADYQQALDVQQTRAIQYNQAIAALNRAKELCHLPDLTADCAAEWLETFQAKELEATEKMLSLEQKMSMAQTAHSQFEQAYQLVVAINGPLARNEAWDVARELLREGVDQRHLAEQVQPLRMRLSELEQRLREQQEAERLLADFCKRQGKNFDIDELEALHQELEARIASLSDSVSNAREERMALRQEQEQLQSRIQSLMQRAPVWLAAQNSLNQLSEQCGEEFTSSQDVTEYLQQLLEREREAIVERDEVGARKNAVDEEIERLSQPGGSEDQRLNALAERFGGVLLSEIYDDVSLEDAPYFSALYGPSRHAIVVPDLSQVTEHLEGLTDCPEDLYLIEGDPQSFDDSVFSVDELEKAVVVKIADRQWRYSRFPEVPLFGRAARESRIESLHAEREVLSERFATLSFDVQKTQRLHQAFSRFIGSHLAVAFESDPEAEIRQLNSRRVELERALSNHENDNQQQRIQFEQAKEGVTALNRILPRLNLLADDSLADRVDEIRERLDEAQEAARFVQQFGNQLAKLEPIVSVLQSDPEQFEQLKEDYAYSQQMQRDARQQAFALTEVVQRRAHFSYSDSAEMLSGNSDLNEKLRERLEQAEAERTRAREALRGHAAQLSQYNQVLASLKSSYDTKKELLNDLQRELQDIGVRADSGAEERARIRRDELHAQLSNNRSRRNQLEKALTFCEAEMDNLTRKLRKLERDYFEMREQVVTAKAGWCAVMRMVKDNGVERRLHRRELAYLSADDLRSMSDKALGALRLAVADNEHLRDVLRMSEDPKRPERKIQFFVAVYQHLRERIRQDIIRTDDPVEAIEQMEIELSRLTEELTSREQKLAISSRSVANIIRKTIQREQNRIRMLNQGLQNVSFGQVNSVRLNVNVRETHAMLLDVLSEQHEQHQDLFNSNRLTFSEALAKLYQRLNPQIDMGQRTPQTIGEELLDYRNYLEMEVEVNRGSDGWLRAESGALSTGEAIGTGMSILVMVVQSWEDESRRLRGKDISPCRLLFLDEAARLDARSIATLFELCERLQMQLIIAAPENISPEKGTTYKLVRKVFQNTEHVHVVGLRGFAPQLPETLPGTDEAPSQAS

As for ParC (from UniProt P0AFI2), the equilibrium dissociation constant (Kd) was 0.5 µM.

What is called Kd is the constant that tells how readily two partners part at equilibrium.
